Assay results taken from publication PMC12361007 (AMB Express, 2025).

Target: human serum albumin (human, UniProt P02768 25-609)
Assay: BLI

B1: rhIL-22BP-ABD (recombinant human IL-22 binding protein fused to the albumin-binding domain ABD) (other)
chain: TQSTHESLKPQRVQFQSRNFHNILQWQPGRALTGNSSVYFVQYKIYGQRQWKNKEDCWGTQELSCDLTSETSDIQEPYYGRVRAASAGSYSEWSMTPRFTPWWETKIDPPVMNITQVNGSLLVILHAPNLPYRYQKEKNVSIEDYYELLYRVFIINNSLEKEQKVYEGAHRAVEIEALTPHSSYCVVAEIYQPMLDRRSQRSEERCVEIPLAEAKVLANRELDKYGVSDYYKNLINNAKTVEGVKALIDEILAALP
- Kd: 1.15 µM
